Reference: patent publication US20170253670A1

Key:
[1] = target: cynomolgus FolR1 monovalent Fc fusion, biotinylated (cynomolgus); experiment: SPR Biacore, monovalent, binder captured via anti-Fab
[2] = target: human FolR1 monovalent Fc fusion, biotinylated (human) (UniProt P15328); experiment: as above
[3] = target: cynomolgus FolR1 monovalent Fc fusion, biotinylated (cynomolgus); experiment: SPR Biacore, bivalent avidity (apparent KD), antigen on chip
[4] = target: human FolR1 monovalent Fc fusion, biotinylated (human) (UniProt P15328); experiment: as above
[5] = target: cynomolgus FolR1 monovalent Fc fusion, biotinylated (cynomolgus); experiment: SPR Biacore, bivalent avidity, antigen on chip
[6] = target: human FolR1 monovalent Fc fusion, biotinylated (human) (UniProt P15328); experiment: SPR Biacore, bivalent avidity, antigen on chip

cynomolgus FolR1 monovalent Fc fusion, biotinylated (cynomolgus), sequence (chain, as listed by the source limits assumed, form in doubt): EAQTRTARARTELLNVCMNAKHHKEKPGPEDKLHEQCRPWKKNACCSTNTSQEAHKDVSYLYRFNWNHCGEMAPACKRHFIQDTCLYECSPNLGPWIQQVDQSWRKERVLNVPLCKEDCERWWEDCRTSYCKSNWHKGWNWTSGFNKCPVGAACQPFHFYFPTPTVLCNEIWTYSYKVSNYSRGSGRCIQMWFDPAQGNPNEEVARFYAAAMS
human FolR1 monovalent Fc fusion, biotinylated (human), sequence (P15328 25-233 limits assumed): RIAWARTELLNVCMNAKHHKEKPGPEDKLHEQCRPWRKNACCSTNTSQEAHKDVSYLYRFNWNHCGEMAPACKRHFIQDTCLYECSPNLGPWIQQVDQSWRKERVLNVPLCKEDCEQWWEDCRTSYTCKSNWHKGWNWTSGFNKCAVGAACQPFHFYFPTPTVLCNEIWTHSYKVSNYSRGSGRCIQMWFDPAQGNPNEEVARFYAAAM

| Binder | Kd [1] [pM] | koff [1] [s⁻¹] | kon [1] [M⁻¹ s⁻¹] | Kd [2] [pM] | koff [2] [s⁻¹] | kon [2] [M⁻¹ s⁻¹] | Kd [3] [pM] | Kd [4] [pM] | koff [5] [s⁻¹] | kon [5] [M⁻¹ s⁻¹] | koff [6] [s⁻¹] | kon [6] [M⁻¹ s⁻¹] |
| --- | --- | --- | --- | --- | --- | --- | --- | --- | --- | --- | --- | --- |
| Mov19 IgG (antibody, from a related filing, V domains shown, part only) VH: QVQLQQSGAELVKPGASVKISCKASGYSFTGYFMNWVKQSHGKSLEWIGRIHPYDGDTFYNQNFKDKATLTVDKSSNTAHMELLSLTSEDFAVYYCTRYDGSRAMDYWGQGTTVTVSS VL: DIELTQSPASLAVSLGQRAIISCKASQSVSFAGTSLMHWYHQKPGQQPKLLIYRASNLEAGVPTRFSGSGSKTDFTLNIHPVEEEDAATYYCQQSREYPYTFGGGTKLEIK | 650 | 0.000193 | 297000 | 550 | 0.000159 | 289000 | 108 | 140 | 0.000139 | 1.29e+06 | 0.000121 | 861000 |
| Farletuzumab (antibody, INN chains, looked up, V domains shown) VH: EVQLVESGGGVVQPGRSLRLSCSASGFTFSGYGLSWVRQAPGKGLEWVAMISSGGSYTYYADSVKGRFAISRDNAKNTLFLQMDSLRPEDTGVYFCARHGDDPAWFAYWGQGTPVTVSS VL: DIQLTQSPSSLSASVGDRVTITCSVSSSISSNNLHWYQQKPGKAPKPWIYGTSNLASGVPSRFSGSGSGTDYTFTISSLQPEDIATYYCQQWSSYPYMYTFGQGTKVEIKR | 67300 | 0.0373 | 553000 | – | 0.023 | 417000 | 650 | – | 0.000868 | 1.33e+06 | 0.0009 | 1.23e+06 |
